Three substances from article PMC7076939 can be followed below.

Data set [1] has as its system MBD2FLsc (single-chain MBD2 with scMBD2-GATAD2A), unlabeled (human). Kind of data set: fluorescence anisotropy. To be noted: 24 nM DNA, text rounds to 12±4, 5-methylcytosine at one CpG, Anisotropy: 20 mM HEPES, 50 mM NaCl, 3 mM MgCl2, 3 mM EDTA, pH 7.5, 24 nM DNA, temperature not given, AFM: 20 mM HEPES, 10 mM Mg(OAc)2, 100 mM NaCl. For orientation: Polarisation of emitted light reports the rotation of a fluorescent probe.

Data set [2] has as its system ATTO-MBD2 (MBD2FLsc labeled with ATTO 565) (human). Nature of the data set: fluorescence anisotropy. To be noted: 24 nM DNA, text rounds to 25±5, 5-methylcytosine at one CpG, Anisotropy: 20 mM HEPES, 50 mM NaCl, 3 mM MgCl2, 3 mM EDTA, pH 7.5, 24 nM DNA, temperature not given, AFM: 20 mM HEPES, 10 mM Mg(OAc)2, 100 mM NaCl.
For data set [3], the system named is MeCP2 (human). Kind of data set: fluorescence anisotropy. To be noted: 24 nM DNA, text gives error 4.4, 5-methylcytosine at one CpG, Anisotropy: 20 mM HEPES, 50 mM NaCl, 3 mM MgCl2, 3 mM EDTA, pH 7.5, 24 nM DNA, temperature not given, AFM: 20 mM HEPES, 10 mM Mg(OAc)2, 100 mM NaCl.
The subject of data set [4] is ATTO-MBD2 (MBD2FLsc labeled with ATTO 565) (human). Kind of data set: nanochannel single-molecule fluorescence. The note with it: Anisotropy: 20 mM HEPES, 50 mM NaCl, 3 mM MgCl2, 3 mM EDTA, pH 7.5, 24 nM DNA, temperature not given, AFM: 20 mM HEPES, 10 mM Mg(OAc)2, 100 mM NaCl.

Consider “FAM-labeled dsDNA with one methylated CpG”, for which the equilibrium dissociation constant (Kd) stood at 11.9 nM in data set [1], 24.5 nM in data set [2] and 7.5 nM in data set [3].

With methylated lambda DNA, the binding signal (fold bound vs unmethylated) in data set [4] (CpG 5-methylcytosine) was determined as 10.

In turn, unmethylated lambda DNA yielded a binding signal (fraction of methylated) in data set [4] of 0.1.

By Kd is commonly meant the constant that tells how readily two partners part at equilibrium. The low end stands for a tighter complex, the high end for a looser complex.
